Results taken from US20240360238A1 (MAGENTA THERAPEUTICS, published 2024).

B1: CD117-ADC (anti-CD117 antibody CK6 conjugated to amatoxin) (antibody, V domains shown)
VH: QVQLVQSGAAVKKPGESLKISCKGSGYRFTSYWIGWVRQMPGKGLEWMGIIYPGDSDTRYSPSFQGQVTISAGKSISTAYLQWSSLKASDTAMYYCARHGRGYNGYEGAFDIWGQGTMVTVSS
VL: AIQLTQSPSSLSASVGDRVTITCRASQGISSALAWYQQKPGKAPKLLIYDASSLESGVPSRFSGSGSGTDFTLTISSLQPEDFATYYCQQFNSYPLTFGGGTKVEIK
modifications: antibody conjugated to an amatoxin; site and linker not stated for this assay
B2: HC-79/LC-79 (Ab79) (antibody, IgG1, V domains shown)
VH: QVQLVQSGAAVKKPGESLKISCKGSGYRFTTYWIGWVRQMPGKGLEWMGIIYPGDSDTRYSPSFQGQVTISAGKSISTAYLQWSSLKASDTAMYYCARHGRGYNGYEGAFDIWGQGTMVTVSS
VL: DIQLTQSPSSLSASVGDRVTITCRASQGVGSALAWYQQKPGKAPKLLIYDASILESGVPSRFSGSGSGTDFTLTISSLQPEDFATYYCQQFNSYPLTFGGGTKVEIK
notes: Purified human antibody tested as an IgG1; hIgG1/hKappa; also called Antibody 79
B3: HC-249/LC-249 ADC (Ab249 conjugated to an amatoxin) (antibody, V domains shown)
VH: EVQLVQSGAEVKKPGESLKISCKGSGYRFTTSWIGWVRQMPGKGLEWMGIIYPGDSDTRYSPSFQGQVTISADKSISTAYLQWSSLKASDTAMYYCARHGLGYNGYEGAFDIWGQGTLVTVSS
VL: DIQMTQSPSSLSASVGDRVTITCRASQGIGSALAWYQQKPGKAPKLLIYDASNLETGVPSRFSGSGSGTDFTLTISSLQPEDFATYYCQQLNGYPLTFGQGTRLEIK
modifications: antibody conjugated to an amatoxin; site not stated
B4: HC-248/LC-248 (Ab248) (antibody, V domains shown)
VH: EVQLVQSGAEVKKPGESLKISCKGSGYRFTTSWIGWVRQMPGKGLEWMGIIYPGDSDTRYSPSFQGQVTISADKSISTAYLQWSSLKASDTAMYYCARHGLGYNGYEGAFDIWGQGTLVTVSS
VL: DIQMTQSPSSLSASVGDRVTITCRASQGIGSALAWYQQKPGKAPKLLIYDASTLESGVPSRFSGSGSGTDFTLTISSLQPEDFATYYCQQLNGYPLTFGQGTRLEIK
notes: IgG on anti-human Fc sensors; hIgG1/hKappa
B5: HC-249/LC-249 (Ab249) (antibody, V domains shown)
VH: EVQLVQSGAEVKKPGESLKISCKGSGYRFTTSWIGWVRQMPGKGLEWMGIIYPGDSDTRYSPSFQGQVTISADKSISTAYLQWSSLKASDTAMYYCARHGLGYNGYEGAFDIWGQGTLVTVSS
VL: DIQMTQSPSSLSASVGDRVTITCRASQGIGSALAWYQQKPGKAPKLLIYDASNLETGVPSRFSGSGSGTDFTLTISSLQPEDFATYYCQQLNGYPLTFGQGTRLEIK
notes: as for B4
B6: HC-247/LC-247 (Ab247) (antibody, V domains shown)
VH: QVQLVQSGAAVKKPGESLKISCKGSGYRFTTYWIGWVRQMPGKGLEWMGIIYPGDSDTRYSPSFQGQVTISAGKSISTAYLQWSSLKASDTAMYYCARHGRGYNGYEGAFDIWGQGTMVTVSS
VL: DIQMTQSPSSLSASVGDRVTITCRASRGISDYLAWYQQKPGKAPKLLIYDASNLETGVPSRFSGSGSGTDFTLTISSLQPEDFATYYCQQANSFPITFGQGTRLEIK
notes: as for B4
B7: HC-81/LC-81 (Ab81) (antibody, IgG1, V domains shown)
VH: QVQLVQSGAAVKKPGESLKISCKGSGYRFTTYWIGWVRQMPGKGLEWMGIIYPGDSDTRYSPSFQGQVTISAGKSISTAYLQWSSLKASDTAMYYCARHGRGYNGYEGAFDIWGQGTMVTVSS
VL: DIQLTQSPSSLSASVGDRVTITCRASQGVISALAWYQQKPGKAPKLLIYDASTLESGVPSRFSGSGSGTDFTLTISSLQPEDFATYYCQQFNSYPLTFGGGTKVEIK
notes: Purified human antibody tested as an IgG1; hIgG1/hKappa; also called Antibody 81
B8: HC-1/LC-1 (Ab1) (antibody, IgG1, V domains shown)
VH: QVQLVQSGAAVKKPGESLKISCKGSGYRFTTYWIGWVRQMPGKGLEWMGIIYPGDSDTRYSPSFQGQVTISAGKSISTAYLQWSSLKASDTAMYYCARHGRGYNGYEGAFDIWGQGTMVTVSS
VL: AIQLTQSPSSLSASVGDRVTITCRASQGVSSALAWYQQKPGKAPKLLIYDASSLESGVPSRFSGSGSGTDFTLTISSLQPEDFATYYCQQFNSYPLTFGGGTKVEIK
notes: Purified IgG (IgG1); also called 001; CK6 derivative Ab1
B9: HC-77/LC-77 (Ab77) (antibody, IgG1, V domains shown)
VH: QVQLVQSGAAVKKPGESLKISCKGSGYRFTTYWIGWVRQMPGKGLEWMGIIYPGDSDTRYSPSFQGQVTISAGKSISTAYLQWSSLKASDTAMYYCARHGRGYNGYEGAFDIWGQGTMVTVSS
VL: DIQLTQSPSSLSASVGDRVTITCRASQGVISALAWYQQKPGKAPKLLIYDASILESGVPSRFSGSGSGTDFTLTISSLQPEDFATYYCQQFNSYPLTFGGGTKVEIK
notes: Purified human antibody tested as an IgG1; hIgG1/hKappa; also called Antibody 77
B10: HC-85/LC-85 ADC (Ab85 conjugated to an amatoxin) (antibody, V domains shown)
VH: EVQLVQSGAEVKKPGESLKISCKGSGYSFTNYWIGWVRQMPGKGLEWMAIINPRDSDTRYRPSFQGQVTISADKSISTAYLQWSSLKASDTAMYYCARHGRGYEGYEGAFDIWGQGTLVTVSS
VL: DIQMTQSPSSLSASVGDRVTITCRSSQGIRSDLGWYQQKPGKAPKLLIYDASNLETGVPSRFSGSGSGTDFTLTISSLQPEDFATYYCQQANGFPLTFGGGTKVEIK
modifications: antibody conjugated to an amatoxin; site not stated
B11: HC-85/LC-85 (Ab85) (antibody, V domains shown)
VH: EVQLVQSGAEVKKPGESLKISCKGSGYSFTNYWIGWVRQMPGKGLEWMAIINPRDSDTRYRPSFQGQVTISADKSISTAYLQWSSLKASDTAMYYCARHGRGYEGYEGAFDIWGQGTLVTVSS
VL: DIQMTQSPSSLSASVGDRVTITCRSSQGIRSDLGWYQQKPGKAPKLLIYDASNLETGVPSRFSGSGSGTDFTLTISSLQPEDFATYYCQQANGFPLTFGGGTKVEIK
notes: Purified IgG, hIgG1/hKappa; also called Antibody 85

Experiments:
[1] = molecular target: T1, CD117 on Kasumi-1 cells and primary human CD34+ bone marrow cells (human, UniProt P10721 26-976); assay: cell-based or functional assay
T1 sequence (P10721 26-976): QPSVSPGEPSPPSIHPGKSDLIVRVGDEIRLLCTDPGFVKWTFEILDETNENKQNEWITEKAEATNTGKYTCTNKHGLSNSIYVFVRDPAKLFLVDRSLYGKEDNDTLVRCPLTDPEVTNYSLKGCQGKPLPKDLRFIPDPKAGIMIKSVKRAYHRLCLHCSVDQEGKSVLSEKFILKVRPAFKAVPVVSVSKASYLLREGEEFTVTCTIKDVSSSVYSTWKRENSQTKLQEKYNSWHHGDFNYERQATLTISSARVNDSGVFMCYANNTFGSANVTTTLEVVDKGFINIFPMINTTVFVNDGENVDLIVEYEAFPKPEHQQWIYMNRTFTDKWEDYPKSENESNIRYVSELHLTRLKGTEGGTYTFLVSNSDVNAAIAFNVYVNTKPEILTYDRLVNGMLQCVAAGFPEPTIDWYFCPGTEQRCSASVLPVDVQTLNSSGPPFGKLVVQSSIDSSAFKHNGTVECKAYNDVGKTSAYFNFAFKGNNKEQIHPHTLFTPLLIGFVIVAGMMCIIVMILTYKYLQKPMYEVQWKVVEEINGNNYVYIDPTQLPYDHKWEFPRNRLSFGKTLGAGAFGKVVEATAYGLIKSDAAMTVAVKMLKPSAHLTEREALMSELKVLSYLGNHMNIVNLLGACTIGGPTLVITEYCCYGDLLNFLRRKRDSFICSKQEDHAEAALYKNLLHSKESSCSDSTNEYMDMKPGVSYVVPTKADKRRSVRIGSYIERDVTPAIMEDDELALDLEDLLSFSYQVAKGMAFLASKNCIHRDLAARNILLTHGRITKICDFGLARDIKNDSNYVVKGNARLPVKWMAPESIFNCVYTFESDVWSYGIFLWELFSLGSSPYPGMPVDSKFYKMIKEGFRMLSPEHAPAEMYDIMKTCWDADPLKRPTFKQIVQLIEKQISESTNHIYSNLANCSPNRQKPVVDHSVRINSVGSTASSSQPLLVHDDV

[2] = molecular target: T1, CD117 on Kasumi-1 cells and primary …; assay: cell-based or functional assay; remark: listed apart in the source
[3] = molecular target: T1, CD117 on Kasumi-1 cells and primary …; assay: cell-based or functional assay; remark: listed apart in the source
[4] = molecular target: T2, purified human CD117 ectodomain (R&D Systems #332-SR) (human, UniProt P10721 26-524); assay: BLI; kdis compared to HC-1/LC-1 (Ab1)
T2 construct: extracellular domain; Bought protein; also called c-kit; purified recombinant human CD117 ectodomain
T2 sequence (P10721 26-524): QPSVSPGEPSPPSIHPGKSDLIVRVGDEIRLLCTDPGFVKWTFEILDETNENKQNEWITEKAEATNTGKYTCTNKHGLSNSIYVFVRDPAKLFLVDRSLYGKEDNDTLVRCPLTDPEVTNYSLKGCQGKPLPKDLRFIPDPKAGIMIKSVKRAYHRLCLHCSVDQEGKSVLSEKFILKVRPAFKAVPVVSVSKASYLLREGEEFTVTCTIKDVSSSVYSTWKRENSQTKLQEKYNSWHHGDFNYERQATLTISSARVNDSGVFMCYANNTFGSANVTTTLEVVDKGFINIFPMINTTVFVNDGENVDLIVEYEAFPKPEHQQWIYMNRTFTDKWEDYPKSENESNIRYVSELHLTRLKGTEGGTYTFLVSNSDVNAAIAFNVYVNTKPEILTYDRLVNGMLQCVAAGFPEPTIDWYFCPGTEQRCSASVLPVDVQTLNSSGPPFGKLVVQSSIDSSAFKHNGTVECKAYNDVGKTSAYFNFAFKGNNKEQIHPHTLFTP

[5] = molecular target: T2, purified human CD117 ectodomain (R&D …); assay: BLI, IgG on anti-human Fc sensor, 33 and 11 nM ectodomain;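 also: Kd, kon and koff are apparent values, with Kd reported as the apparent monovalent affinity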
[6] = molecular target: T2, purified human CD117 ectodomain (R&D …); assay: BLI (Octet Red96), IgG1 on anti-human Fc sensor, 33.3 and 11 nM ectodomain, 1:1 fit
[7] = molecular target: T2, purified human CD117 ectodomain (R&D …); assay: BLI, purified IgG on sensor, soluble ectodomain; apparent monovalent
[8] = molecular target: T2, purified human CD117 ectodomain (R&D …); assay: BLI (Octet Red96), IgG on anti-human Fc sensor, 33.3 and 11 nM ectodomain

Binder	Fold improvement (off-rate) [4] [fold]	Kd [5] [nM]	koff [5] [s⁻¹]	kon [5] [M⁻¹ s⁻¹]	Kd [6] [nM]	koff [6] [s⁻¹]	kon [6] [M⁻¹ s⁻¹]	other results
B1								IC50 (M), Kasumi-1 cell killing (Celltiter Glo, 3 days) [1]: 1.48e-11 M; IC50, in vitro killing of Kasumi-1 cells (Celltiter Glo) [2]: 1600 nM; IC50, in vitro killing of primary human CD34+ bone marrow cells [2]: 21000 nM; % efficacy, killing of primary human CD34+CD90+ cells [3]: 70.8%; IC50, killing of primary human CD34+CD90+ cells (5 days, flow cytometry counts) [3]: 0.00977 nM
B2	4.7	1.52	0.000478	316000	1.52	0.000478	316000	
B3								IC50 (M), Kasumi-1 cell killing (Celltiter Glo, 3 days) [1]: 2.5e-11 M; % efficacy, killing of primary human CD34+CD90+ cells [3]: 52%; IC50, killing of primary human CD34+CD90+ cells (5 days, flow cytometry counts) [3]: 0.00667 nM
B4	7.1	0.922	0.000319	346000				
B5	12	0.551	0.000189	344000				
B6	3.6	1.68	0.00063	374000				
B7	9	0.877	0.000252	288000	0.877	0.000252	288000	
B8		4.09	0.00227	556000	3.1	0.0013	420000	Kd [7]: 2.81 nM; koff [7]: 0.000848 s⁻¹; kon [7]: 302000 M⁻¹ s⁻¹; Kd [8]: 4.09 nM; koff [8]: 0.00227 s⁻¹; kon [8]: 556000 M⁻¹ s⁻¹
B9	10.5	0.684	0.000215	315000	0.684	0.000215	315000	
B10								IC50 (M), Kasumi-1 cell killing (Celltiter Glo, 3 days) [1]: 1.76e-11 M; % efficacy, killing of primary human CD34+CD90+ cells [3]: 71.2%; IC50, killing of primary human CD34+CD90+ cells (5 days, flow cytometry counts) [3]: 0.00574 nM
B11	5.2	0.835	0.000434	520000				Kd [8]: 0.835 nM; koff [8]: 0.000434 s⁻¹; kon [8]: 520000 M⁻¹ s⁻¹
